From the supplement of paper PMC11136658

System: peptide library, one residue held at a place counted from the Y acceptor
Experiment: relative phosphorylation of the sub-library (ratio to the mean residue at this position); higher = residue favoured
How it was run: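 Each value expresses phosphorylation relative to the mean randomized residue. Purified recombinant kinases acted for 90 min in 384-well plates on biotinylated Tyr-centred peptide library mixtures, with one residue fixed at one position from −5 to +5, in the presence of 50 μM ATP with γ-32P-ATP. Signals were read by phosphorimaging after capture on streptavidin membranes, then normalized per position to the sum of the 18 randomized residues (16 in the Ser/Thr-free library) and multiplied by that number.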

LYN, construct: Full length, human, sequence (P07948 whole entry, looked up): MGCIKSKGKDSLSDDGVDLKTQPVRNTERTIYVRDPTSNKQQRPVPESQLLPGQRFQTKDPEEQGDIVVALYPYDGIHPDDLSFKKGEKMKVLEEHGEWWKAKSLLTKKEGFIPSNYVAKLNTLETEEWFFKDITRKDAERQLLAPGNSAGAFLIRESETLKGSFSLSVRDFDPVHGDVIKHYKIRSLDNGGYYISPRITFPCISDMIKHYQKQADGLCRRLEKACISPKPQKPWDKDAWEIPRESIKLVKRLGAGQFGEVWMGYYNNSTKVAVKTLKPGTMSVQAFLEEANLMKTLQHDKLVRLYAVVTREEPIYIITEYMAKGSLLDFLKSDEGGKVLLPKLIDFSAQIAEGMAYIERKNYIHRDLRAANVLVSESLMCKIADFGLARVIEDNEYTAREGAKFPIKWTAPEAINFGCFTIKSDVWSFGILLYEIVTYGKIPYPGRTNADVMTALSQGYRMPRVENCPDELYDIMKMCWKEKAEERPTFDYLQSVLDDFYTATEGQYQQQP
MATK, construct: Full length, human, sequence (P42679 whole entry, looked up): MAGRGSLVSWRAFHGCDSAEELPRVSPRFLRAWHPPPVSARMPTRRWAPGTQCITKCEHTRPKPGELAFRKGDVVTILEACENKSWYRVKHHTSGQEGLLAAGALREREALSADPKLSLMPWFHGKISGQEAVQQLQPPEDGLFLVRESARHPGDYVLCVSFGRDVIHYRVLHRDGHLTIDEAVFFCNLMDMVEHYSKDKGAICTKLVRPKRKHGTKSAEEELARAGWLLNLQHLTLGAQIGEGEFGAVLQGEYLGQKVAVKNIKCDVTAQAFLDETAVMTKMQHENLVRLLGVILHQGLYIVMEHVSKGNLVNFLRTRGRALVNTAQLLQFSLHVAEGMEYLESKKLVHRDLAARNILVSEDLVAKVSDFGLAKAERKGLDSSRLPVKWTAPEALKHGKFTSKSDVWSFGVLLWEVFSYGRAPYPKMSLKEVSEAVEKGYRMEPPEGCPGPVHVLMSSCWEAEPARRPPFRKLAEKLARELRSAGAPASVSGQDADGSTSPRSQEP
MKK4, construct: aa34-end, human, sequence (P45985 34-399, looked up): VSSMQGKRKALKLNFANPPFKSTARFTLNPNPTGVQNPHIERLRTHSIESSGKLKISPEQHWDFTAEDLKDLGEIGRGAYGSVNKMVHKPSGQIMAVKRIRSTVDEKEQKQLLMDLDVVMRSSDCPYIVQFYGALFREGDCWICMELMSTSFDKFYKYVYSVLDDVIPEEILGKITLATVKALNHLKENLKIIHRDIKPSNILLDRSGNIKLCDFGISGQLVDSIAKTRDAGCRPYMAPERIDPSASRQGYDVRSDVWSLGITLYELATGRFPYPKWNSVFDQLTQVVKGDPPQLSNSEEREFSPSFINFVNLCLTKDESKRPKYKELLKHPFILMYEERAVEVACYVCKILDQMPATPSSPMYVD

LYN, construct: Full length, human (from UniProt P07948)
relative phosphorylation
Conditions	at +1	at +2	at +3	at +4	at +5	at -1	at -2	at -3	at -4	at -5
A fixed	1.69	0.956	0.493	0.796	0.932	0.577	1.02	0.769	1.09	1.05
D fixed	0.936	0.672	0.237	0.582	0.535	0.838	1.44	1.77	1.3	1.27
E fixed	1.64	1.58	0.258	0.623	0.514	1.1	1.63	2.4	1.61	1.09
F fixed	0.757	1.12	3.21	1.07	1.48	1.27	0.808	1.09	1.44	1.06
G fixed	2.35	0.704	0.661	0.923	1	0.445	1.2	0.939	1.14	1.04
H fixed	0.807	0.613	0.68	1.22	0.988	0.505	0.773	0.703	0.641	0.871
I fixed	1.15	1.13	2.63	0.899	0.956	3.44	1.05	0.802	0.922	1.02
K fixed	0.22	0.682	0.443	1.25	1.21	0.21	0.489	0.427	0.582	0.805
L fixed	0.822	0.804	1.47	0.911	1.04	2.08	0.993	0.835	1.24	1.03
M fixed	1.04	0.935	0.896	1.09	0.848	0.982	0.635	0.992	0.992	1.07
N fixed	0.628	0.943	0.347	0.803	0.66	0.381	1.14	1.09	0.82	1.09
P fixed	0.226	0.911	0.638	1.06	1.28	0.791	1.14	1.24	0.991	1.03
Q fixed	1.1	0.963	0.352	1.14	0.778	0.463	1.03	0.917	1.19	1.09
R fixed	0.31	0.92	0.974	1.38	1.32	0.2	0.524	0.45	0.6	0.762
S fixed	1.05	1.31	0.507	0.974	1.05	0.413	1.16	0.905	0.721	0.833
T fixed	0.795	1.33	0.59	0.851	1.01	1.22	0.964	0.823	0.669	0.765
V fixed	1.3	1.2	1.4	0.824	0.893	2.27	1.02	0.696	0.803	0.885
W fixed	1.18	1.22	2.21	1.61	1.5	0.811	0.977	1.15	1.25	1.23
pThr fixed	0.927	1.68	0.243	0.385	0.435	2.22	1.34	1.24	1.14	1.11
pTyr fixed	1.36	1.98	0.397	0.897	0.487	1.35	1.2	1.49	1.45	1.21

MATK, construct: Full length, human (from UniProt P42679)
relative phosphorylation
Conditions	at +1	at +2	at +3	at +4	at +5	at -1	at -2	at -3	at -4	at -5
A fixed	1.54	0.899	0.728	0.85	0.892	0.545	0.986	0.875	1.17	0.971
D fixed	0.52	0.698	0.362	0.806	0.935	1.04	0.725	1.43	1.29	1.34
E fixed	1.01	0.877	0.364	1.15	1.09	2.07	1.36	2.47	1.78	1.26
F fixed	0.735	1.12	1.38	0.839	1.18	0.512	0.538	0.854	0.872	0.935
G fixed	0.643	0.46	0.667	0.962	0.845	0.407	1.23	0.95	1.39	1.18
H fixed	1.61	0.658	1.15	1.49	1	1.71	1.09	1.08	0.975	1.01
I fixed	0.964	0.972	1.95	0.803	0.862	2.32	0.822	0.599	0.724	0.922
K fixed	0.833	0.932	1.12	1.19	0.979	0.703	0.911	0.76	0.982	0.986
L fixed	0.776	1.24	1.51	0.876	0.881	0.905	0.737	0.683	0.756	0.763
M fixed	1.22	1.32	0.915	0.998	0.983	0.954	0.677	0.736	0.749	0.845
N fixed	0.804	1.3	0.491	1.14	1.09	0.988	1.03	1.23	0.879	1.1
P fixed	0.521	0.763	1.08	1.15	0.952	0.536	1.15	1.07	1.1	1.06
Q fixed	1.13	0.885	0.749	0.856	0.991	1.02	1	0.8	1.1	1.09
R fixed	1.04	1.42	1.19	1.4	1.24	0.706	1	0.967	1.04	1.09
S fixed	1.1	0.845	0.674	0.789	1.11	0.423	1.77	1.06	0.803	0.738
T fixed	0.927	0.839	0.842	0.772	1.01	0.818	1.41	0.868	0.713	0.923
V fixed	1.24	0.848	1.46	0.665	0.832	1.72	0.887	0.696	0.668	0.724
W fixed	1.38	1.93	1.37	1.27	1.14	0.627	0.671	0.869	1	1.06
pThr fixed	1.28	1.53	0.438	0.544	0.806	0.806	1.4	2.14	1.28	0.879
pTyr fixed	3.3	3.6	0.787	1.2	0.998	9.49	2.64	4.79	3	1.8

MKK4, construct: aa34-end, human (from UniProt P45985)
relative phosphorylation
Conditions	at +1	at +2	at +3	at +4	at +5	at -1	at -2	at -3	at -4	at -5
A fixed	1.14	0.979	0.996	1.06	0.902	0.986	1.01	0.916	1.11	1.06
D fixed	1.32	1.29	1.03	1.2	1.02	1.49	1.18	0.991	1.09	0.992
E fixed	1.26	1.05	1.16	1.05	1.18	1.2	1.17	0.898	1.09	1.06
F fixed	0.867	1.1	1.08	1.12	1.13	0.844	1.06	1.05	1.06	1.17
G fixed	1.49	1.25	1.12	1.15	1.18	1.58	1.02	0.961	1.2	1.18
H fixed	0.87	0.959	0.981	1.22	1.04	0.866	0.994	1.01	1	1.11
I fixed	0.748	0.79	0.796	0.795	0.79	0.898	0.72	0.833	0.785	0.884
K fixed	0.786	0.846	0.923	0.837	0.909	0.638	1.09	1.07	0.878	0.915
L fixed	0.892	0.859	0.806	0.855	0.941	1.03	0.974	0.991	0.905	0.905
M fixed	1.05	0.907	0.949	0.904	0.88	1.11	0.922	0.934	0.918	0.873
N fixed	0.957	1.03	0.898	0.844	0.9	0.905	0.983	0.939	0.86	0.984
P fixed	1.11	1.32	1.34	1.37	1.22	1.04	1.05	0.928	1.08	1.09
Q fixed	0.87	0.893	0.854	0.753	0.858	0.885	0.856	1.04	0.977	0.902
R fixed	0.865	0.941	0.977	0.907	1.05	0.771	0.958	1.41	1.02	0.97
V fixed	0.775	0.779	0.826	0.761	0.775	0.694	0.792	0.736	0.771	0.713
W fixed	0.999	1.02	1.27	1.18	1.21	1.06	1.21	1.28	1.24	1.2
pThr fixed	1.17	1.23	1.15	1.21	1.07	1.05	0.96	1.2	1.29	1.18
pTyr fixed	1.25	0.974	1.18	0.991	1.22	2.13	1.28	1.25	1.18	1.18
